According to IntAct's records for PubMed 31515488:

B1: Scaffold protein ILK (Homo sapiens), Q13418 (parent)
chain: MDDIFTQCREGNAVAVRLWLDNTENDLNQGDDHGFSPLHWACREGRSAVVEMLIMRGARINVMNRGDDTPLHLAASHGHRDIVQKLLQYKADINAVNEHGNVPLHYACFWGQDQVAEDLVANGALVSICNKYGEMPVDKAKAPLRELLRERAEKMGQNLNRIPYKDTFWKGTTRTRPRNGTLNKHSGIDFKQLNFLTKLNENHSGELWKGRWQGNDIVVKVLKVRDWSTRKSRDFNEECPRLRIFSHPNVLPVLGACQSPPAPHPTLITHWMPYGSLYNVLHEGTNFVVDQSQAVKFALDMARGMAFLHTLEPLIPRHALNSRSVMIDEDMTARISMADVKFSFQCPGRMYAPAWVAPEALQKKPEDTNRRSADMWSFAVLLWELVTREVPFADLSNMEIGMKVALEGLRPTIPPGISPHVCKLMKICMNEDPAKRPKFDMIVPILEKMQDK
partner: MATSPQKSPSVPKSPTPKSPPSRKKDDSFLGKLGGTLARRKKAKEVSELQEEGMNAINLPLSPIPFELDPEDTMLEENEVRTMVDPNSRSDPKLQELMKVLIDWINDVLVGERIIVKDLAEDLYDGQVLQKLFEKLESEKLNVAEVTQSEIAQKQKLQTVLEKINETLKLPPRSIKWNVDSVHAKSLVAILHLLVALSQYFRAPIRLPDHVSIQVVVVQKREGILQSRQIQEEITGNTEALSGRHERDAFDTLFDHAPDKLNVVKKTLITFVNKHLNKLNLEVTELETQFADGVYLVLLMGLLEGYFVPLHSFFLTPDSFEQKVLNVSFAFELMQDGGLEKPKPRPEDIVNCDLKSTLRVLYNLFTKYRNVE

Variants of: B1
Conditions: with parva_human PARVA

Row | Variant | effect of a mutation on the interaction
1 | MDDIFTQCREGNAVAVRLWLDNTENDLNQGDDHGFSPLHWACREGRSAVVEMLIMRGARINVMNRGDDTPLHLAASHGHRDIVQKLLQYKADINAVNEHGNVPLHYACFWGQDQVAEDLVANGALVSICNKYGEMPVDKAKAPLRELLRERAEKMGQNLNRIPYKDTFWKGTTRTRPRNGTLNKHSGIDFKQLNFLTKLNENHSGELWKGRWQGNDIVVKVLKVRDWSTRKSRDFNEECPRLRIFSHPNVLPVLGACQSPPAPHPTLITHWMPYGSLYNVLHEGTNFVVDQSQAVKFALDMARGMAFLHTLEPHIPRHALNSRSVMIDEDMTARISMADVKFSFQCPGRMYAPAWVAPEALQKKPEDTNRRSADMWSFAVLLWELVTREVPFADLSNMEIGMKVALEGLRPTIPPGISPHVCKLMKICMNEDPAKRPKFDMIVPILEKMQDK [L314H] | with no effect
2 | MDDIFTQCREGNAVAVRLWLDNTENDLNQGDDHGFSPLHWACREGRSAVVEMLIMRGARINVMNRGDDTPLHLAASHGHRDIVQKLLQYKADINAVNEHGNVPLHYACFWGQDQVAEDLVANGALVSICNKYGEMPVDKAKAPLRELLRERAEKMGQNLNRIPYKDTFWKGTTRTRPRNGTLNKHSGIDFKQLNFLTKLNENHSGELWKGRWQGNDIVVKVLKVRDWSTRKSRDFNEECPRLRIFSHPNVLPVLGACQSPPVPHPTLITHWMPYGSLYNVLHEGTNFVVDQSQAVKFALDMARGMAFLHTLEPLIPRHALNSRSVMIDEDMTARISMADVKFSFQCPGRMYAPAWVAPEALQKKPEDTNRRSADMWSFAVLLWELVTREVPFADLSNMEIGMKVALEGLRPTIPPGISPHVCKLMKICMNEDPAKRPKFDMIVPILEKMQDK [A262V] | with no effect
3 | MDDIFTQCREGNAVAVRLWLDNTENDLNQGDDHGFSPLHWACREGHSAVVEMLIMRGARINVMNRGDDTPLHLAASHGHRDIVQKLLQYKADINAVNEHGNVPLHYACFWGQDQVAEDLVANGALVSICNKYGEMPVDKAKAPLRELLRERAEKMGQNLNRIPYKDTFWKGTTRTRPRNGTLNKHSGIDFKQLNFLTKLNENHSGELWKGRWQGNDIVVKVLKVRDWSTRKSRDFNEECPRLRIFSHPNVLPVLGACQSPPAPHPTLITHWMPYGSLYNVLHEGTNFVVDQSQAVKFALDMARGMAFLHTLEPLIPRHALNSRSVMIDEDMTARISMADVKFSFQCPGRMYAPAWVAPEALQKKPEDTNRRSADMWSFAVLLWELVTREVPFADLSNMEIGMKVALEGLRPTIPPGISPHVCKLMKICMNEDPAKRPKFDMIVPILEKMQDK [R46H] | with no effect
4 | MDDIFTQCREGNAVAVRLWLDNTENDLNQGDDHGFSPLHWACREGRSAVVEMLIMRGARINVMNRGDDTPLHLAASHGHRDIVQKLLQYKADINAVNEHGNVPLHYACFWGQDQVAEDLVANGALVSICNKYGEMPVDKAKAPLRELLRERAEKMGQNLNRIPYKDTFWKGTTRTRPRNGTLNKHSGIDFKQLNFLTKLNENHSGELWKGRWQGNDIVVKVLKVRDWSTRKSRDFNEECPRLRIFSHPNVLPVLGACQSPPAPHPTLITHWMPYGSLYNVLHEGTNFVVDQSQAVKFALDMARGMAFLHTIEPLIPRHALNSRSVMIDEDMTARISMADVKFSFQCPGRMYAPAWVAPEALQKKPEDTNRRSADMWSFAVLLWELVTREVPFADLSNMEIGMKVALEGLRPTIPPGISPHVCKLMKICMNEDPAKRPKFDMIVPILEKMQDK [L311I] | with no effect
5 | MDDIFTQCREGNAVAVRLWLDNTENDLNQGDDHGFSPLHWACREGRSAVVEMLIMRGARINVMNRGDDTPLHLAASHGHRDIVQKLLQYKADINAVNEHGNVPLHYACFWGQDQVAEDLVANGALVSICNKYGEMPVDKAKAPLRELLRERAEKMGQNLNRIPYKDTFWKGTTRTRPRNGTLNKHSGIDFKQLNFLTKLNENHSGELWKGRWQGNDIVVKVLNVRDWSTRKSRDFNEECPRLRIFSHPNVLPVLGACQSPPAPHPTLITHWMPYGSLYNVLHEGTNFVVDQSQAVKFALDMARGMAFLHTLEPLIPRHALNSRSVMIDEDMTARISMADVKFSFQCPGRMYAPAWVAPEALQKKPEDTNRRSADMWSFAVLLWELVTREVPFADLSNMEIGMKVALEGLRPTIPPGISPHVCKLMKICMNEDPAKRPKFDMIVPILEKMQDK [K223N] | disrupting interaction strength
6 | MDDIFTQCREGNAVAVRLWLDNTENDLNQGDDHGFSPLHWACREGRSAVVEMLIMRGARINVMNRGDDTPLHLAASHGHRDIVQKLLQYKADINAVNEHGNVPLHYACFWGQDQVAEDLVANGALVSICNKYGEMPVDKAKAPLRELLRERAEKMGQNLNRIPYKDTFWKGTTRTRPRNGTLNKHSGIDFKQLNFLTKLNENHSGELWKGRWQGNDIVVKVLKVRDWSTRKSRDFNEECPRLRIFSHPNVLPVLGACQSPPAPHPTLITHWMPYGSLYNVLHEGTNFVVDQSQAVKFALDMARGMAFLHTLEPLIPRHALNSRSVMIDEDMTARISMADGKFSFQCPGRMYAPAWVAPEALQKKPEDTNRRSADMWSFAVLLWELVTREVPFADLSNMEIGMKVALEGLRPTIPPGISPHVCKLMKICMNEDPAKRPKFDMIVPILEKMQDK [V340G] | with no effect
